B1: GSDMD (gasdermin-D): S338A (protein)
parent chain: MGSAFERVVRRVVQELDHGGEFIPVTSLQSSTGFQPYCLVVRKPSSSWFWKPRYKCVNLSIKDILEPDAAEPDVQRGRSFHFYDAMDGQIQGSVELAAPGQAKIAGGAAVSDSSSTSMNVYSLSVDPNTWQTLLHERHLRQPEHKVLQQLRSRGDNVYVVTEVLQTQKEVEVTRTHKREGSGRFSLPGATCLQGEGQGHLSQKKTVTIPSGSTLAFRVAQLVIDSDLDVLLFPDKKQRTFQPPATGHKRSTSEGAWPQLPSGLSMMRCLHNFLTDGVPAEGAFTEDFQGLRAEVETISKELELLDRELCQLLLEGLEGVLRDQLALRALEEALEQGQSLGPVEPLDGPAGAVLECLVLSSGMLVPELAIPVVYLLGALTMLSETQHKLLAEALESQTLLGPLELVGSLLEQSAPWQERSTMSLPPGLLGNSWGEGAPAWVLLDECGLELGEDTPHVCWEPQAQGRMCALYASLALLSGLSQEPH
B2: GSDMD (gasdermin-D): TMG (protein)
parent chain: B1 parent chain

Key:
[1] = western blot of GSDMD-N, HEK293T input; conditions: control: GSDMD-WT
[2] = western blot of GSDMD-N, HUVECs; conditions: glycan gained; control: HUVECs, LPS without TMG

| Protein | other: proteolytic processing ([1]; glycan lost, LPS + TMG) | other: proteolytic processing [2] | other: proteolytic processing ([1]; glycan gained, LPS without TMG) |
| --- | --- | --- | --- |
| B1 | increases |  |  |
| B2 |  | decreases | decreases |
